Experimental findings from PMC8789040, “Directed evolution of orthogonal RNA–RBP pairs through library-vs-library in vitro selection” are described below.

What all share (conditions): protein: recombinant, tags: N-term Twin-Strep-tag, C-term 6xHis
Data set [1] has as its target L7Ae (Archaeoglobus fulgidus, UniProt O29494 2-119). In words: SPR (Biacore T200, RNA captured, protein analyte); SPR running buffer: 10 mM HEPES pH 7.4, 150 mM NaCl, 0.05% Surfactant P20, 1 mM MgCl2, 0.25 mM TCEP, 0.1 mg/ml BSA, 25 ug/ml yeast tRNA, 25 C; RNA captured by its 3' docking sequence on biotinylated 2'-OMe RNA.
Data set [2] deals with dL7Ae (Archaeoglobus fulgidus, UniProt O29494 2-119, E34K;K37E;R41E;I88G;E89G;V90G;P91G;C92S). The data set is described as above.
For data set [3], the target named is dL7Ae (Archaeoglobus fulgidus (printed A. …, UniProt O29494 1-119, E34K;K37E;R41E;I88G;E89G;V90G;P91G;C92S)). The data set can be described thus: SPR; SPR: 10 mM HEPES pH 7.4, 150 mM NaCl, 1 mM MgCl2, 0.05% P20, 0.25 mM TCEP, 0.1 mg/ml BSA, 25 ug/ml yeast tRNA, 25 C; EMSA: 10 mM HEPES-KOH pH 7.5, 140 mM KCl, 10 mM NaCl, 1 mM MgCl2, 0.1 mM TCEP, 0.01% Tween-20, 10 ug/ml yeast tRNA (1x of the printed 5x buffer). In general terms: SPR reads the build-up and loss of mass on a sensor chip optically.

The target in data set [4] is L7Ae (Archaeoglobus fulgidus (printed A. …, UniProt O29494 1-119)). Described as above.
Sequence of L7Ae (Archaeoglobus fulgidus (O29494 whole entry): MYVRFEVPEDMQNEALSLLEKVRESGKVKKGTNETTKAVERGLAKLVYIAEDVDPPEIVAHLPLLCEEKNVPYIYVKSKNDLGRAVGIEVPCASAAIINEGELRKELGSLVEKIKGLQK

Sequence of L7Ae (O29494 2-119): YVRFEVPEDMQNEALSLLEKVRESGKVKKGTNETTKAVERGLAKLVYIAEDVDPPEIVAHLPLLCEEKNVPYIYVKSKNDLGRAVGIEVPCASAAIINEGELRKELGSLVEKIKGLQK
Sequence of dL7Ae (Archaeoglobus fulgidus (O29494 whole entry E34K/K37E/R41E/I88G/E89G/V90G/P91G/C92S): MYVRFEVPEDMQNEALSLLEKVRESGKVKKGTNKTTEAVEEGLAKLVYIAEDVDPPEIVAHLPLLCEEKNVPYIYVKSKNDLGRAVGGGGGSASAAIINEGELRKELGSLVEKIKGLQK
Sequence of dL7Ae (O29494 2-119 E34K/K37E/R41E/I88G/E89G/V90G/P91G/C92S): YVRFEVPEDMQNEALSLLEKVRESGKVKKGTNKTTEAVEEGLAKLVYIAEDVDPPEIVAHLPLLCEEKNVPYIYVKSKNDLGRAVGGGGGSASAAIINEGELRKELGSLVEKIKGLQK

B1: Box C/D Kt (Kt_SPR) (structured_RNA)
RNA: GGAUCGCGUGAUCCGAAAGGUGACGAUCCAAAUCGACGAAAGACACAGAACG
On to B1, for which the dissociation constant (Kd) in the data set with L7Ae [1] (hairpin with kink-turn) and with L7Ae [4] (hairpin with kink-turn) was 21.3 pM each time. For the same molecule, the binding result with dL7Ae [2] (hairpin with kink-turn) and with dL7Ae [3] (hairpin with kink-turn) was “no binding” in each case.

B2: CS1-M1 (structured_RNA)
RNA: GGUGGCUGAGAAAGGCGAAAGCCUUGUGAUGCCAUCAAAUCGACGAAAGACACAGAACG
With B2, the Kd with L7Ae [4] (hairpin) amounted to 1810 pM.

B3: CS1-M3 (structured_RNA)
RNA: GGUGGCAGUGAAAGGCGAAAGCCUUGUUAGGCCAUCAAAUCGACGAAAGACACAGAACG
With B3, the binding result with L7Ae [1] is on record as “no binding”.

B4: CS1 (structured_RNA)
RNA: GGUGGCAGAGAAAGGCGAAAGCCUUGUGAGGCCAUCAAAUCGACGAAAGACACAGAACG
Turning to B4, the Kd with L7Ae [4] (hairpin, internal loop) is 1490 pM.

B5: CS1-M2b (structured_RNA)
RNA: GGUGGCAAAGAAAGGCGAAAGCCUUGUGAGGCCAUCAAAUCGACGAAAGACACAGAACG
Regarding B5, in the data set with L7Ae [1], the binding result was “binds”.

B6: CS1-M2 (structured_RNA)
RNA: GGUGGCAUAGAAAGGCGAAAGCCUUGUGUGGCCAUCAAAUCGACGAAAGACACAGAACG
For B6, the binding result with L7Ae [1] is given as “no binding”.

B7: CS1-M2a (structured_RNA)
RNA: GGUGGCAUAGAAAGGCGAAAGCCUUGUGAGGCCAUCAAAUCGACGAAAGACACAGAACG
Regarding B7, in the data set with L7Ae [1], the binding result is given as “binds”.

B8: CS1-M2c (structured_RNA)
RNA: GGUGGCAGAGAAAGGCGAAAGCCUUGUGUGGCCAUCAAAUCGACGAAAGACACAGAACG
Take B8: the binding result with L7Ae [1] is “binds”.

B9: dKt (dKt_SPR) (structured_RNA)
RNA: GGCUGGGGCGUCAUCCGAAAGGUGCCCCAGCCAAAUCGACGAAAGACACAGAACG
On to B9, for which the binding result is on record as “no binding” with L7Ae [1] (hairpin, defective kink-turn); “no binding” with dL7Ae [2] (hairpin, defective kink-turn); “no binding” with dL7Ae [3] (hairpin, defective kink-turn); “no binding” with L7Ae [4] (hairpin, defective kink-turn).

B10: CS2 (structured_RNA)
RNA: GGAUGCAGAGAACGAAAGUUCCAUGACGCAUCCAAAUCGACGAAAGACACAGAACG
With B10, the Kd with L7Ae [4] (hairpin, asymmetric internal loop (putative kink-turn)) came out at 5.71 pM.

B11: CS2-M3 (structured_RNA)
RNA: GGAUGCAGAGAACGAAAGUUCCAUUACGCAUCCAAAUCGACGAAAGACACAGAACG
Regarding B11, the dissociation constant (Kd) with L7Ae [4] (hairpin) turned out to be 200000 pM.

B12: CS2-M4 (structured_RNA)
RNA: GGAUGCAGAGAACGAAAGUUCCAUGCCGCAUCCAAAUCGACGAAAGACACAGAACG
Turning to B12, the binding result with L7Ae [1] is “binds”.

B13: CS2-M2 (structured_RNA)
RNA: GGAUGCAGCGAACGAAAGUUCCAUGACGCAUCCAAAUCGACGAAAGACACAGAACG
In the case of B13, the binding result with L7Ae [1] is “no binding”.

B14: CS2-M1 (structured_RNA)
RNA: GGAUGCAAAGAACGAAAGUUCCAUGACGCAUCCAAAUCGACGAAAGACACAGAACG
On to B14, for which the binding result with L7Ae [1] is on record as “binds”.

Usually Kd stands for the constant that tells how readily two partners part at equilibrium.
